This is an account of results in patent publication US7897569B2, “Use of HMGB fragments as anti-inflammatory agents” (The Feinstein Institute for Medical Research, priority 2001, dated 2011).

For the test, the system named is RAW 264.7 cells. Nature of the test: TNF release from RAW 264.7 cells (L929 cytotoxicity bioassay). The class given is cell-based, murine. The settings on record: for TNF release: 1 μg/ml protein, RAW 264.7 cells. As to the method:
Murine macrophage-like RAW 264.7 cells (American Type Culture Collection, Rockville, Md.) were cultured in RPMI 1640 medium (Life Technologies, Grand Island N.Y.) supplemented with 10% fetal bovine serum (Gemini, Catabasas, Calif.), penicillin and streptomycin (Life Technologies) and were used at 90% confluence in serum-free Opti-MEM I medium (Life Technologies, Grand Island, N.Y.). […] Polymyxin B was not used in experiments of synthetic peptide studies.
TNF release was measured by a standard murine fibroblast L929 (ATCC, American Type Culture Collection, Rockville, Md.) cytotoxicity bioassay (Bianchi et al., Journal of Experimental Medicine 183:927-936, 1996) with the minimum detectable concentration of 30 pg/ml. Recombinant mouse TNF was obtained from R&D system Inc., (Minneapolis, Minn.). Murine fibroblast L929 cells (ATCC) were cultured in DMEM (Life Technologies, Grand Island, N.Y.) supplemented with 10% fetal bovine serum (Gemini, Catabasas, Calif.), penicillin (50 units/ml) and streptomycin (50 μg/ml) (Life Technologies) in a humidified incubator with 5% CO2.
The effect of the mutants on TNF release from Murine macrophage-like RAW 264.7 cells (ATCC) was carried out as follows. RAW 264.7 cells were cultured in RPMI 1640 medium (Life Technologies, Grand Island N.Y.) supplemented with 10% fetal bovine serum (Gemini, Catabasas, Calif.), penicillin and streptomycin (Life Technologies). Polymyxin (Sigma, St. Louis, Mo.) was added at 100 units/ml to suppress the activity of any contaminating LPS. Cells were incubated with 1 μg/ml of full length (wild-type) HMGB1 and each HMGB1 mutant protein in Opti-MEM I medium for 8 hours, and conditioned supernatants (containing TNF which had been released from the cells) were collected and TNF released from the cells was measured by a standard murine fibroblast L929 (ATCC) cytotoxicity bioassay (Bianchi et al., supra) with the minimum detectable concentration of 30 pg/ml. Recombinant mouse TNF was obtained from R & D Systems Inc., (Minneapolis, Minn.) and used as control in these experiments. Data in FIG. 1 are all presented as mean+SEM unless otherwise indicated. (N=6-10).
To further examine the effect of HMGB1 B box on cytokine production, varying amounts of HMGB1 B box were evaluated for the effects on TNF, IL-1 B, and IL-6 production in murine macrophage-like RAW 264.7 cells. Conditioned media were harvested and measured for TNF, IL-1β and IL-6 levels. TNF levels were measured as described herein, and IL-1β and IL-6 levels were measured using the mouse IL-1β and IL-6 enzyme-linked immunosorbent assay (ELISA) kits (R&D System Inc., Minneapolis, Minn.) and N>5 for all experiments.
The kinetics of B box-induced TNF release was also examined. TNF release and TNF mRNA expression was measured in RAW 264.7 cells induced by B box polypeptide or GST tag polypeptide only used as a control (vector) (10 μg/ml) for 0 to 48 hours. Supernatants were analyzed for TNF protein levels by an L929 cytotoxicity assay (N=3-5) as described herein. For mRNA measurement, cells were plated in 100 mm plate and treated in Opti-MEM I medium containing B box polypeptide or the vector alone for 0, 4, 8, or 24 hours, as indicated in FIG. 2D. The vector only sample was assayed at the 4 hour time point. Cells were scraped off the plate and total RNA was isolated by RNAzol B method in accordance with the manufacturer's instructions (Tel-Test “B”, Inc., Friendswood, Tex.). TNF (287 bp) was measured by RNase protection assay (Ambion, Austin, Tex.). Equal loading and the integrity of RNA was verified by ethidium bromide staining of the RNA sample on agarose-formaldehyde gel. […] TNF mRNA expression was maximal at 4 hours and decreased at 8 and 24 hours. […] A similar study was carried out measuring TNF protein released from RAW 264.7 cells 0, 4, 8, 24, 32 or 48 hours after administration of B box or vector only (GST tag), using the L929 cytotoxicity assay described herein. […] Data are representative of three separate experiments. […]

B1: B box: Human HMGB1 mutant containing only the B box, SEQ ID NO:20 (protein)
chain: FKDPNAPKRLPSAFFLFCSEYRPKIKGEHPGLSIGDVAKKLGEMWNNTAADDKQPYEKKAAKLKEKYEKDIAAY
For B1, the TNF release result (8 hours) is “potent activator of monocyte TNF release”. For the setting “10 μg/ml, 0-48 hours”, the “TNF protein expression compared to medium only” value is recorded as “stimulated TNF protein expression” and the “time of maximum TNF protein release” value is no more than 8 h. The “TNF release, dose dependence” value (B box 0-10 μg/ml, 8 hours) is given as “increased with increased amounts of B box”.

B2: HMGB1: Recombinant full length human HMGB1, GST fusion system, SEQ ID NO:18; recombinant rat HMGB1 used in some experiments (protein)
chain: MGKGDPKKPTGKMSSYAFFVQTCREEHKKKHPDASVNFSEFSKKCSERWKTMSAKEKGKFEDMAKADKARYEREMKTYIPPKGETKKKFKDPNAPKRLPSAFFLFCSEYRPKIKGEHPGLSIGDVAKKLGEMWNNTAADDKQPYEKKAAKLKEKYEKDIAAYRAKGKPDAAKKGVVKAEKSKKKKEEEEDEEDEEDEEEEEDEEDEEDEEEDDDDE
modifications: GST fusion
notes: recombinant rat HMGB1 used in some experiments
On to B2, for which the TNF release entry (8 hours) is “significantly stimulated TNF release”.

B3: A box: Human HMGB1 mutant containing only the A box, SEQ ID NO:21 (A box SEQ ID NO:22) (protein)
chain: MGKGDPKKPTGKMSSYAFFVQTCREEHKKKHPDASVNFSEFSKKCSERWKTMSAKEKGKFEDMAKADKARYEREMKTYIPPKGET
B3: where the note is “8 hours”, the TNF release result is given as “only weakly activated TNF release”.
